Drawing on patent publication US20200354411A1, “Chimeric Molecule for Targeting c-Myc in Cells” (priority 2017, published 2020), this text covers decrease in Myc reporter activity and luciferase controlled by E-Box, A431 cells, 6 hours for 3 substances.

For this test, the target named is c-Myc (UniProt P01106). Description: cell-based or functional assay.
Chain of c-Myc (P01106 whole entry): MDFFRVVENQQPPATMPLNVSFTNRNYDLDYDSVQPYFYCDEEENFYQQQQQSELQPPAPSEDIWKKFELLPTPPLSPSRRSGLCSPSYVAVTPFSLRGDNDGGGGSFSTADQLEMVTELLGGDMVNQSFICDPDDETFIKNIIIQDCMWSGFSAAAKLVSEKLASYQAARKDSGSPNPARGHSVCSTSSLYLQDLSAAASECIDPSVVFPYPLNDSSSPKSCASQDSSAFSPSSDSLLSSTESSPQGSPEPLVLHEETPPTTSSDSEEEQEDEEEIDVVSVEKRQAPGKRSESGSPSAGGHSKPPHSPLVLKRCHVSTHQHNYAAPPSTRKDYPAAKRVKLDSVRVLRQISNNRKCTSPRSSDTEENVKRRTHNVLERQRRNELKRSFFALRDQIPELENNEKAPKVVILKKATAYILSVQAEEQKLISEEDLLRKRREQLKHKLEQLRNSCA

“CAD-H1 (Cadherin cell targeting peptide fused to H1)”: the decrease in Myc reporter activity at 150 µM was less than 75% and the luciferase controlled by E-Box, A431 cells, 6 hours is 75 µM. On to “Int-H1 (Antenapedia cell targeting peptide fused to H1)”, for which the decrease in Myc reporter activity at 400 µM is less than 75% and the luciferase controlled by E-Box, A431 cells, 6 hours was 200 µM. Turning to “Tat-H1 (TAT cell targeting peptide fused to H1)”, the luciferase controlled by E-Box, A431 cells, 6 hours is 500 µM.
